Source: patent publication JP2010254663A
Where two headings read alike, the source gives them in different places.

Key:
[1] = molecular target: HAMA血清タイプ1(Roche製、品番:1767275); assay: forward sandwich ELISA with anti-hCEA antibodies and HAMA serum type 1, inhibitor at 1 ug/ml
[2] = molecular target: HAMA血清タイプ1(Roche製、品番:1767275); assay: as above; remark: listed apart in the source

Row | HAMA抑制率 [1] [%] | HAMA抑制率 [2] [%] | Substance
1 | 61 | 39 | マウスIgG(CHEMICON製、品番:PP54) (antibody)
2 | 68 | – | Heterophilic Blocking Reagent1(SCANTIBODIES LABORATORY，INC.製、品番:3KC534−075)
3 | 69 | 51 | MAK33−IgG1(Roche製、品番:1200941) (antibody)
